According to PMC3797246 (Structure (London, England : 1993), 2013):
Where a chain is given by its changes, count along the chain named. Names and notes keep the numbering of the source.

Columns and labels:
[1] = target: the molecule itself; experiment: SEC
[2] = target: T1, SARAH domain of human RASSF5 (RASSF5^SARAH, residues 366-413) (human, UniProt Q8WWW0 366-413); experiment: SEC
T1 chain (looked up): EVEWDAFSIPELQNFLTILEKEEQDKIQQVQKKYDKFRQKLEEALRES

[3] = target: the molecule itself; experiment: co-IP
[4] = target: the molecule itself; experiment: AUC

B1: full-length Mst2 (Mst2^FL, residues 9-491) (enzyme, human, UniProt Q13188 9-491, looked up)
chain: SKLKKLSEDSLTKQPEEVFDVLEKLGEGSYGSVFKAIHKESGQVVAIKQVPVESDLQEIIKEISIMQQCDSPYVVKYYGSYFKNTDLWIVMEYCGAGSVSDIIRLRNKTLIEDEIATILKSTLKGLEYLHFMRKIHRDIKAGNILLNTEGHAKLADFGVAGQLTDTMAKRNTVIGTPFWMAPEVIQEIGYNCVADIWSLGITSIEMAEGKPPYADIHPMRAIFMIPTNPPPTFRKPELWSDDFTDFVKKCLVKNPEQRATATQLLQHPFIKNAKPVSILRDLITEAMEIKAKRHEEQQRELEEEEENSDEDELDSHTMVKTSVESVGTMRATSTMSEGAQTMIEHNSTMLESDLGTMVINSEDEEEEDGTMKRNATSPQVQRPSFMDYFDKQDFKNKSHENCNQNMHEPFPMSKNVFPDNWKVPQDGDFDFLKNLSLEELQMRLKALDPMMEREIEELRQRYTAKRQPILDAMDAKKRRQQNF
modifications: phosphorylated at the activation loop (T180) as purified from bacteria
Q: B1 was tested. Which “stoichiometry N” value [1] did it give?
A: 2

B2: linker-deletion Mst2 (Mst2^ΔL, residues 9-313 and 428-491) (enzyme, human, UniProt Q13188 9-313, looked up)
chain: SKLKKLSEDSLTKQPEEVFDVLEKLGEGSYGSVFKAIHKESGQVVAIKQVPVESDLQEIIKEISIMQQCDSPYVVKYYGSYFKNTDLWIVMEYCGAGSVSDIIRLRNKTLIEDEIATILKSTLKGLEYLHFMRKIHRDIKAGNILLNTEGHAKLADFGVAGQLTDTMAKRNTVIGTPFWMAPEVIQEIGYNCVADIWSLGITSIEMAEGKPPYADIHPMRAIFMIPTNPPPTFRKPELWSDDFTDFVKKCLVKNPEQRATATQLLQHPFIKNAKPVSILRDLITEAMEIKAKRHEEQQRELEEEENWKVPQDGDFDFLKNLSLEELQMRLKALDPMMEREIEELRQRYTAKRQPILDAMDAKKRRQQNF
Q: Does B2 bind [2]?
A: binds

B3: Mst2 D456A, full-length, in vitro translated (enzyme, human, UniProt Q13188 1-491, looked up)
chain: MEQPPAPKSKLKKLSEDSLTKQPEEVFDVLEKLGEGSYGSVFKAIHKESGQVVAIKQVPVESDLQEIIKEISIMQQCDSPYVVKYYGSYFKNTDLWIVMEYCGAGSVSDIIRLRNKTLIEDEIATILKSTLKGLEYLHFMRKIHRDIKAGNILLNTEGHAKLADFGVAGQLTDTMAKRNTVIGTPFWMAPEVIQEIGYNCVADIWSLGITSIEMAEGKPPYADIHPMRAIFMIPTNPPPTFRKPELWSDDFTDFVKKCLVKNPEQRATATQLLQHPFIKNAKPVSILRDLITEAMEIKAKRHEEQQRELEEEEENSDEDELDSHTMVKTSVESVGTMRATSTMSEGAQTMIEHNSTMLESDLGTMVINSEDEEEEDGTMKRNATSPQVQRPSFMDYFDKQDFKNKSHENCNQNMHEPFPMSKNVFPDNWKVPQDGDFDFLKNLSLEELQMRLKALAPMMEREIEELRQRYTAKRQPILDAMDAKKRRQQNF
modifications: 35S-methionine label
Q: How did the “binding compared to wild-type Mst2” value [3] turn out when B3 was run?
A: ≥ 30%

B4: Mst2 R467A, full-length, in vitro translated (enzyme, human, UniProt Q13188 1-491, looked up)
chain: B3 chain with A456D, R467A
modifications: 35S-methionine label
Q: With B4 as the binder, how does the “binding compared to wild-type Mst2” value [3] read?
A: ≥ 30%

B5: Mst2 R474A, full-length, in vitro translated (enzyme, human, UniProt Q13188 1-491, looked up)
chain: B3 chain with A456D, R474A
modifications: 35S-methionine label
Q: With B5 as the binder, how does the “binding compared to wild-type Mst2” value [3] read?
A: ≥ 30%

B6: Mst2 L445A, full-length, in vitro translated (enzyme, human, UniProt Q13188 1-491, looked up)
chain: B3 chain with L445A, A456D
modifications: 35S-methionine label
Q: Which “binding compared to wild-type Mst2” value [3] does the source give for B6 here?
A: ≥ 30%

B7: Mst2 R469A, full-length, in vitro translated (enzyme, human, UniProt Q13188 1-491, looked up)
chain: B3 chain with A456D, R469A
modifications: 35S-methionine label
Q: For B7, which “binding compared to wild-type Mst2” value [3] is on record?
A: ≥ 30%

B8: Mst2 K473A, full-length, in vitro translated (enzyme, human, UniProt Q13188 1-491, looked up)
chain: B3 chain with A456D, K473A
modifications: 35S-methionine label
Q: Which “binding compared to wild-type Mst2” value [3] does the source give for B8 here?
A: ≥ 30%

B9: Mst2 L466A, full-length, in vitro translated (enzyme, human, UniProt Q13188 1-491, looked up)
chain: B3 chain with A456D, L466A
modifications: 35S-methionine label
Q: How did the “binding compared to wild-type Mst2” value [3] turn out when B9 was run?
A: ≥ 30%

B10: catalytically inactive mutant of the human Mst2 kinase domain (Mst2^KD/D146N) (domain or fragment, UniProt Q13188 16-313, looked up)
chain: EDSLTKQPEEVFDVLEKLGEGSYGSVFKAIHKESGQVVAIKQVPVESDLQEIIKEISIMQQCDSPYVVKYYGSYFKNTDLWIVMEYCGAGSVSDIIRLRNKTLIEDEIATILKSTLKGLEYLHFMRKIHRNIKAGNILLNTEGHAKLADFGVAGQLTDTMAKRNTVIGTPFWMAPEVIQEIGYNCVADIWSLGITSIEMAEGKPPYADIHPMRAIFMIPTNPPPTFRKPELWSDDFTDFVKKCLVKNPEQRATATQLLQHPFIKNAKPVSILRDLITEAMEIKAKRHEEQQRELEEEE
Q: With B10 as the binder, how does the “stoichiometry N” value [4] read?
A: 2
